B1: CPEB3 Ribozyme (parent)
chain: GGGGGCCACAGCAGAAGCGUUCACGUCGCGGCCCCUGUCAGAUUCUGGUGAAUCUGCGAAUUCUGCUGU

Variants of: B1
Assay: self-cleavage, relative activity (ratio to wild type); higher = more cleavage; co-transcriptional

Variant	self-cleavage
GGGGGCCACAGAAGAAGCGUUCACGUCGCGGCCCCUGUCAGAUUCUGGUGAAUCUGCGAAUUCUGCUGG [C12A U69G]	0.925
GGGGGCCACAGGAGAAGCGUUCACGUCGCGGCCCCUGUCAGAUUCUGGCGAAUCUGCGAAUUCUGCUGU [C12G U49C]	0.827
GGGGGCCACAGGAGAAGCGUUCACGUCGCGGCCCCUGUCAGAUUCUGGAGAAUCUGCGAAUUCUGCUGU [C12G U49A]	0.934
GGGGGCCACAGAAGAAGCGUUCACGUCGCGGCCCCUGACAGAUUCUGGUGAAUCUGCGAAUUCUGCUGU [C12A U38A]	0.493
GGGGGCCACAGAAGAAGCGUUCACGUCGCGGCCCCUGCCAGAUUCUGGUGAAUCUGCGAAUUCUGCUGU [C12A U38C]	0.516
GGGGGCCACAGGAGAAUCGUUCACGUCGCGGCCCCUGUCAGAUUCUGGUGAAUCUGCGAAUUCUGCUGU [C12G G17U]	0.165
GGGGGCCACAGGAGAAGCGUUCACGUCGGGGCCCCUGUCAGAUUCUGGUGAAUCUGCGAAUUCUGCUGU [C12G C29G]	0.152
GGGGGCCACAGGAGAAGCGUUCACCUCGCGGCCCCUGUCAGAUUCUGGUGAAUCUGCGAAUUCUGCUGU [C12G G25C]	0.166
GGGGGCCACAGGAGAAGCGUUCACGUCGCGGCCCCUGUCAGAUUCUGGUGUAUCUGCGAAUUCUGCUGU [C12G A51U]	0.854
GGGGGCCACAGGAGAAGCGUUCACGUCGCGGCCCCUGUCAGAUUCUGGUGAAUCUGCGAACUCUGCUGU [C12G U61C]	0.282
GGGGGCCACAGGAGAAGCGUUCACGUCGCGGCCCCUGCCAGAUUCUGGUGAAUCUGCGAAUUCUGCUGU [C12G U38C]	0.745
GGGGGCCACAGGAGAAGCGUUCACGUCGCGGCCCCUGUCAGAUUCUGGUGAAUCUGCGUAUUCUGCUGU [C12G A59U]	0.4
GGGGGCCACAGGAGAAGCGUUCACGUCUCGGCCCCUGUCAGAUUCUGGUGAAUCUGCGAAUUCUGCUGU [C12G G28U]	0.11
GGGGGCCACAGAAGAAGCGUUCACGUCGCGGCCCCUGUCAGAUUCUGGUGAAUCUGCAAAUUCUGCUGU [C12A G58A]	0.62
GGGGGCCACAGGAGAUGCGUUCACGUCGCGGCCCCUGUCAGAUUCUGGUGAAUCUGCGAAUUCUGCUGU [C12G A16U]	0.486
GGGGGCCACAGGAGACGCGUUCACGUCGCGGCCCCUGUCAGAUUCUGGUGAAUCUGCGAAUUCUGCUGU [C12G A16C]	0.177
GGGGGCCACAGGAGAAGCGUUCACGUCGCGGCCCCUGUCAGAUUCUGGUGAAUCUGCGAAUUCUGCUAU [C12G G68A]	0.972
GGGGGCCACAGGAGAAGCGUUCACGUCGCGGCCCCUGUCAGAUUCUGGUGAAUCUGCGAAUUCUGCUCU [C12G G68C]	0.832
GGGGGCCACAGGAGAAGCGUUCACGUCGCGGCCCCUGUCAGAUUCUGGUGAAUCUGCGAAUUCGGCUGU [C12G U64G]	0.395
GGGGGCCACAGGAGAAGCGUUCACGUCGCGGCCCCUGUCAGAUUCUGGUGAAUCUGCGAAUUCCGCUGU [C12G U64C]	0.566
GGGGGCCACAGAAGAAGCGUUCACGUCGCGGCCCCUGUCAGAUUCUGGUGAAUCUGCGAAUCCUGCUGU [C12A U62C]	0.338
GGGGGCCACAGGAGAAGCGUUCACGUCGCGGCCCCUGUCAGAUUCUGGUGAAUCUACGAAUUCUGCUGU [C12G G56A]	0.741
GGGGGCCACAGGAGAAGCGUUCACGUCGCGGCCCCUGUCAGAUUCUGGUGAAUCUUCGAAUUCUGCUGU [C12G G56U]	0.544
GGGGGCCACAGGGGAAGCGUUCACGUCGCGGCCCCUGUCAGAUUCUGGUGAAUCUGCGAAUUCUGCUGU [C12G A13G]	0.48
GGGGGCCACAGGAGAAGCGUUCACGUCGCGGCCCCUGUCAGAUUCUGCUGAAUCUGCGAAUUCUGCUGU [C12G G48C]	0.949
GGGGGCCACAGGAGAAGCGUUCACGUCGCGGCCCCUCUCAGAUUCUGGUGAAUCUGCGAAUUCUGCUGU [C12G G37C]	0.205

Variant	self-cleavage
GGGGGCCACAGGAGAAGCGUUCACGUCGCGGCCCCUUUCAGAUUCUGGUGAAUCUGCGAAUUCUGCUGU [C12G G37U]	0.223
GGGGGCCACAGGAGAAGCGUUCACGUCGCGGCCCCUGUCAGAUACUGGUGAAUCUGCGAAUUCUGCUGU [C12G U44A]	0.727
GGGGGCCACAGAAGAAGCGUUCACGUCGCGGCCCCUGUCAGAUUCUGUUGAAUCUGCGAAUUCUGCUGU [C12A G48U]	0.8
GGGGGCCACAGAAGAAGCGUUCACGUCGCGGCCCCUGUCAGAUUCAGGUGAAUCUGCGAAUUCUGCUGU [C12A U46A]	0.804
GGGGGCCACAGAAGAAGCGUUCACGUCGCGGCCCCUGUCAGAUUCUGGUGAAUCUGCGAAUUCUCCUGU [C12A G65C]	0.841
GGGGGCCACAGGAGAAGCGUUCACGUCGCGGCCCCUGUCAGAUUCUGGUGAAUCUGCCAAUUCUGCUGU [C12G G58C]	0.834
GGGGGCCACAGAAGAAGCGUUCACGUCGCGGCCCCUGUCAGAUUCUGGUGAACCUGCGAAUUCUGCUGU [C12A U53C]	0.232
GGGGGCCACAGGAGAAGCGUUCACGUCGCGGCUCCUGUCAGAUUCUGGUGAAUCUGCGAAUUCUGCUGU [C12G C33U]	0.405
GGGGGCCACAGGAGAAGCGUUCAGGUCGCGGCCCCUGUCAGAUUCUGGUGAAUCUGCGAAUUCUGCUGU [C12G C24G]	0.199
GGGGGCCACAGGAGAAGCGUUCAUGUCGCGGCCCCUGUCAGAUUCUGGUGAAUCUGCGAAUUCUGCUGU [C12G C24U]	0.435
GGGGGCCACAGGAGAAGCGUUCAAGUCGCGGCCCCUGUCAGAUUCUGGUGAAUCUGCGAAUUCUGCUGU [C12G C24A]	0.374
GGGGGCCACAGGAGAAGCGUUCACGUCGCGGCCCCUGUCAGAUUCUGGUGAAUGUGCGAAUUCUGCUGU [C12G C54G]	0.518
GGGGGCCACAGGAGAAGCAUUCACGUCGCGGCCCCUGUCAGAUUCUGGUGAAUCUGCGAAUUCUGCUGU [C12G G19A]	0.137
GGGGGCCACAGGAGAAGCCUUCACGUCGCGGCCCCUGUCAGAUUCUGGUGAAUCUGCGAAUUCUGCUGU [C12G G19C]	0.0934
GGGGGCCACAGGAGAAGCUUUCACGUCGCGGCCCCUGUCAGAUUCUGGUGAAUCUGCGAAUUCUGCUGU [C12G G19U]	0.0842
GGGGGCCACAGAAGAAGCGUUCACGGCGCGGCCCCUGUCAGAUUCUGGUGAAUCUGCGAAUUCUGCUGU [C12A U26G]	0.447
GGGGGCCACAGAAGAAGCGUUCACGACGCGGCCCCUGUCAGAUUCUGGUGAAUCUGCGAAUUCUGCUGU [C12A U26A]	0.374
GGGGGCCACAGGAGAAGCGUUGACGUCGCGGCCCCUGUCAGAUUCUGGUGAAUCUGCGAAUUCUGCUGU [C12G C22G]	0.208
GGGGGCCACAGGAGAAGCGUUAACGUCGCGGCCCCUGUCAGAUUCUGGUGAAUCUGCGAAUUCUGCUGU [C12G C22A]	0.164
GGGGGCCACAGAAGAAGCGUUCACGUCGCGGCCCCUGUCAGAUUCUGGUGAAUCUGCGAAUUCCGCUGU [C12A U64C]	0.58
GGGGGCCACAGAAGAAGCGUUCACGUCGCGGCCCCUGUCAGAUUCUGGUGAAUCUGCGAAUUCAGCUGU [C12A U64A]	0.582
GGGGGCCACAGGAGAAGCGUUCACGUCGCGGCCCCUGUCCGAUUCUGGUGAAUCUGCGAAUUCUGCUGU [C12G A40C]	0.318
GGGGGCCACAGAAGAAGCGUUCACGUCGCGGCCCCUGUCAAAUUCUGGUGAAUCUGCGAAUUCUGCUGU [C12A G41A]	0.213
GGGGGCCACAGGACAAGCGUUCACGUCGCGGCCCCUGUCAGAUUCUGGUGAAUCUGCGAAUUCUGCUGU [C12G G14C]	0.0732
GGGGGCCACAGGAAAAGCGUUCACGUCGCGGCCCCUGUCAGAUUCUGGUGAAUCUGCGAAUUCUGCUGU [C12G G14A]	0.127
GGGGGCCACAGGAUAAGCGUUCACGUCGCGGCCCCUGUCAGAUUCUGGUGAAUCUGCGAAUUCUGCUGU [C12G G14U]	0.118

Variant	self-cleavage
GGGGGCCACAGAAGAAGCGUGCACGUCGCGGCCCCUGUCAGAUUCUGGUGAAUCUGCGAAUUCUGCUGU [C12A U21G]	0.0774
GGGGGCCACAGGAGAAGCGUCCACGUCGCGGCCCCUGUCAGAUUCUGGUGAAUCUGCGAAUUCUGCUGU [C12G U21C]	0.308
GGGGGCCACAGGAGAAGCGUUCACGUCGCGGCCGCUGUCAGAUUCUGGUGAAUCUGCGAAUUCUGCUGU [C12G C34G]	0.69
GGGGGCCACAGGAGAAGCGUUCACGUCGCGGCCCCUGUCAGAUUCUGGUGAAUCUGCGAUUUCUGCUGU [C12G A60U]	0.367
GGGGGCCACAGGAGAAGCGUUCACGUCGCGGCCCCUGUCAGAGUCUGGUGAAUCUGCGAAUUCUGCUGU [C12G U43G]	0.361
GGGGGCCACAGGAGAAGCGUUCACGUCGCGGCCCCUGUCAGAUUCUGGUGAAUCUGCGAAUACUGCUGU [C12G U62A]	0.349
GGGGGCCACAGGAGAAGCGUUCACGUCGCGGCCCCUGUCAGAUUCUGGUGAAUCUGCGAAUCCUGCUGU [C12G U62C]	0.458
GGGGGCCACAGGAGAAGCGUUCACGUCGCGGCCCGUGUCAGAUUCUGGUGAAUCUGCGAAUUCUGCUGU [C12G C35G]	0.369
GGGGGCCACAGGAGAAGCGUUCACGUCGCGGCCCAUGUCAGAUUCUGGUGAAUCUGCGAAUUCUGCUGU [C12G C35A]	0.326
GGGGGCCACAGAAGAAGCGUUCACGUCGCGGCCCCAGUCAGAUUCUGGUGAAUCUGCGAAUUCUGCUGU [C12A U36A]	0.194
GGGGGCCACAGAAGAAGCGUUCACGUCGCGGCCCCGGUCAGAUUCUGGUGAAUCUGCGAAUUCUGCUGU [C12A U36G]	0.154
GGGGGCCACAGGAGAAGCGUUCACGUCGCGGCCCCUGUCAGAUUCUGGUGAAUCUGCGAAUUCUGCUGU [C12G]	0.92
GGGGGCCACAGGAGAAGCGUUCACGUCGCGGCCCCUGUCAGAUUCUGGUGAAUCUGCGAAUUUUGCUGU [C12G C63U]	0.53
GGGGGCCACAGGAGAAGCGCUCACGUCGCGGCCCCUGUCAGAUUCUGGUGAAUCUGCGAAUUCUGCUGU [C12G U20C]	0.119
GGGGGCCACAGGAGAAGCGUUCACGUCGCUGCCCCUGUCAGAUUCUGGUGAAUCUGCGAAUUCUGCUGU [C12G G30U]	0.26
GGGGGCCACAGGAGAAGCGUUCACGUCGCAGCCCCUGUCAGAUUCUGGUGAAUCUGCGAAUUCUGCUGU [C12G G30A]	0.43
GGGGGCCACAGGAGAAGCGUUCACGUCGCGGCCCCUGUCAUAUUCUGGUGAAUCUGCGAAUUCUGCUGU [C12G G41U]	0.377
GGGGGCCACAGGAGAAGCGUUCACGUCGCGGCCCCUGUCACAUUCUGGUGAAUCUGCGAAUUCUGCUGU [C12G G41C]	0.416
GGGGGCCACAGGAGAAGCGUUCACGUCGCGGCCCCUGUAAGAUUCUGGUGAAUCUGCGAAUUCUGCUGU [C12G C39A]	0.484
GGGGGCCACAGGAGAAGCGUUCACGUGGCGGCCCCUGUCAGAUUCUGGUGAAUCUGCGAAUUCUGCUGU [C12G C27G]	0.1
GGGGGCCACAGAAGAAGCGUUCACGUCGCGGCCCCUGUCAGAUUCUGGUGAAUCCGCGAAUUCUGCUGU [C12A U55C]	0.366
GGGGGCCACAGGAGAAGCGUUCACGUCGCGGCCCCCGUCAGAUUCUGGUGAAUCUGCGAAUUCUGCUGU [C12G U36C]	0.669
GGGGGCCACAGAAGAAGCGUUCACGUCGCGGCCCCUGUCAGAUUCUGGCGAAUCUGCGAAUUCUGCUGU [C12A U49C]	0.73
GGGGGCCACAGGAGAAGCGUUCUCGUCGCGGCCCCUGUCAGAUUCUGGUGAAUCUGCGAAUUCUGCUGU [C12G A23U]	0.55
GGGGGCCACAGGAGAAGCGUUCCCGUCGCGGCCCCUGUCAGAUUCUGGUGAAUCUGCGAAUUCUGCUGU [C12G A23C]	0.628
GGGGGCCACAGGAGAAGCGUUCGCGUCGCGGCCCCUGUCAGAUUCUGGUGAAUCUGCGAAUUCUGCUGU [C12G A23G]	0.721

— the RNAGym collection of RNA variant scans (doi:10.7554/elife.80360)
